Molecular target: SNARE complex including SNAP-25, syntaxin and VAMP2 (endogenous, in PC12 cells) (rat (PC12 cells, derived from rats), UniProt P60881 1-206; P32851 1-288; P63045 2-116)
Experiment: cell-based or functional assay

SNARE complex including SNAP-25, syntaxin and VAMP2 (endogenous, in PC12 cells), sequence (P60881 whole entry, chain 1 of 3): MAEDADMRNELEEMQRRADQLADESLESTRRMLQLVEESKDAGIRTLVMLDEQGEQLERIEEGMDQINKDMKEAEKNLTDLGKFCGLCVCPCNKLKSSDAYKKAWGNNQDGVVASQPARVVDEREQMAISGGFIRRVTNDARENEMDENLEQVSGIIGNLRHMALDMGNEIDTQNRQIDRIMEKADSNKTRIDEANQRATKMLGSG
SNARE complex including SNAP-25, syntaxin and VAMP2 (endogenous, in PC12 cells), sequence (P32851 whole entry, chain 2 of 3): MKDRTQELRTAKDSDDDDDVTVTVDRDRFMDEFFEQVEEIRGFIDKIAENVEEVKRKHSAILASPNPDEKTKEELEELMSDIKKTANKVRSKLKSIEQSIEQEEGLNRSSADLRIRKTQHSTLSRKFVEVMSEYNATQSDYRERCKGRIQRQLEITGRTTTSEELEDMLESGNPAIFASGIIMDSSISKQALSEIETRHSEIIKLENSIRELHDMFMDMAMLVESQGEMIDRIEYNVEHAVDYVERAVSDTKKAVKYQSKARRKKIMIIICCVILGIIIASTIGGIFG
SNARE complex including SNAP-25, syntaxin and VAMP2 (endogenous, in PC12 cells), sequence (P63045 2-116, chain 3 of 3): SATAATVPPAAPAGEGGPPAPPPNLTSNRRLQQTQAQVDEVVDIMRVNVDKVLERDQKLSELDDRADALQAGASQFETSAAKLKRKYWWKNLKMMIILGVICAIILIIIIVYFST

| Binder | neurotransmitter (norepinephrine) secretion rate in PC12 cells compared to an untreated group, peptide at 20 µM [%] |
| --- | --- |
| RRLQQTQAQVDEVVDIM [P4 peptide, h-VAMP2 (30-46 aa)] | 75 |
| RRWRRWNRFNRRRCRRRLQQTQAQVDEVV | 56 |

Source: patent US20250325468A1 (MEDYTOX, published 2025)
